{"source": "paper doi:10.1101/2021.05.25.445547", "key": {"[1]": {"molecular_target": "optimized bait-PAR-Grb2 with inserted flexible linker sequences, GFP-fused (UniProt P62993)", "assay": "TIR-FRAP on micropatterned bait"}, "[2]": {"molecular_target": "optimized bait-PAR-Grb2 with inserted flexible linker sequences, GFP-fused (UniProt P62993)", "assay": "subcellular micropatterning"}, "[3]": {"molecular_target": "optimized bait-PAR-Grb2 with inserted flexible linker sequences, RFP-fused (UniProt P62993)", "assay": "subcellular micropatterning"}, "[4]": {"molecular_target": "T1, optimized bait-PAR-Grb2 with inserted flexible linker sequences, RFP-fused, P62993", "assay": "subcellular micropatterning", "conditions": "remark: other sources report otherwise"}, "[5]": {"molecular_target": "T1, optimized bait-PAR-Grb2 with inserted …", "assay": "TIR-FRAP on micropatterned bait", "conditions": "remark: other sources report otherwise"}}, "note": "Values joined by “and” are separate entries in the source; they are usually repeats but may differ in a detail not shown here. Identical values can stand only once.", "data": [{"molecule": "SHC-transforming protein 1 (Shc1), RFP-fused (from UniProt P29353 1-583) (natural protein)", "values": [{"measurement": "halftime of dissociation (FRAP)", "setting": "[1]", "value": 10, "unit": "s"}, {"measurement": "k slow (exchange rate, bi-exponential FRAP fit)", "setting": "[1]", "value": 0.103, "unit": "s⁻¹"}, {"measurement": "bait-normalized fluorescence contrast <c (prey/bait)>, after EGF", "setting": "[2]", "value": 0.45}, {"measurement": "bait-normalized fluorescence contrast <c (prey/bait)>, unstimulated cells", "setting": "[2]", "value": 0.14}]}, {"molecule": "cell-permeable cyclic peptide cyclo(YpVNFΦrpPRR)", "values": [{"measurement": "EC50", "setting": "[3]", "value": "68 µM and 63 µM"}, {"measurement": "dissociation half-life of Gab1 from Grb2 at 100 μM peptide", "setting": "[3]", "value": 42, "unit": "s"}, {"measurement": "dissociation half-life of SOS1 from Grb2 at 100 μM peptide", "setting": "[3]", "value": 36, "unit": "s"}, {"measurement": "maximum prey dissociation (Gab1 and SOS1 from Grb2) at 100 μM peptide", "setting": "[3]", "value": "70 to 75", "unit": "%"}]}, {"molecule": "son of sevenless protein 1 (SOS1), GFP-fused, Q07889 1-1333 (natural protein) MQAQQLPYEFFSEENAPKWRGLLVPALKKVQGQVHPTLESNDDALQYVEELILQLLNMLCQAQPRSASDVEERVQKSFPHPIDKWAIADAQSAIEKRKRRNPLSLPVEKIHPLLKEVLGYKIDHQVSVYIVAVLEYISADILKLVGNYVRNIRHYEITKQDIKVAMCADKVLMDMFHQDVEDINILSLTDEEPSTSGEQTYYDLVKAFMAEIRQYIRELNLIIKVFREPFVSNSKLFSANDVENIFSRIVDIHELSVKLLGHIEDTVEMTDEGSPHPLVGSCFEDLAEELAFDPYESYARDILRPGFHDRFLSQLSKPGAALYLQSIGEGFKEAVQYVLPRLLLAPVYHCLHYFELLKQLEEKSEDQEDKECLKQAITALLNVQSGMEKICSKSLAKRRLSESACRFYSQQMKGKQLAIKKMNEIQKNIDGWEGKDIGQCCNEFIMEGTLTRVGAKHERHIFLFDGLMICCKSNHGQPRLPGASNAEYRLKEKFFMRKVQINDKDDTNEYKHAFEIILKDENSVIFSAKSAEEKNNWMAALISLQYRSTLERMLDVTMLQEEKEEQMRLPSADVYRFAEPDSEENIIFEENMQPKAGIPIIKAGTVIKLIERLTYHMYADPNFVRTFLTTYRSFCKPQELLSLIIERFEIPEPEPTEADRIAIENGDQPLSAELKRFRKEYIQPVQLRVLNVCRHWVEHHFYDFERDAYLLQRMEEFIGTVRGKAMKKWVESITKIIQRKKIARDNGPGHNITFQSSPPTVEWHISRPGHIETFDLLTLHPIEIARQLTLLESDLYRAVQPSELVGSVWTKEDKEINSPNLLKMIRHTTNLTLWFEKCIVETENLEERVAVVSRIIEILQVFQELNNFNGVLEVVSAMNSSPVYRLDHTFEQIPSRQKKILEEAHELSEDHYKKYLAKLRSINPPCVPFFGIYLTNILKTEEGNPEVLKRHGKELINFSKRRKVAEITGEIQQYQNQPYCLRVESDIKRFFENLNPMGNSMEKEFTDYLFNKSLEIEPRNPKPLPRFPKKYSYPLKSPGVRPSNPRPGTMRHPTPLQQEPRKISYSRIPESETESTASAPNSPRTPLTPPPASGASSTTDVCSVFDSDHSSPFHSSNDTVFIQVTLPHGPRSASVSSISLTKGTDEVPVPPPVPPRRRPESAPAESSPSKIMSKHLDSPPAIPPRQPTSKAYSPRYSISDRTSISDPPESPPLLPPREPVRTPDVFSSSPLHLQPPPLGKKSDHGNAFFPNSPSPFTPPPPQTPSPHGTRRHLPSPPLTQEVDLHSIAGPPVPPRQSTSQHIPKLPPKTYKREHTHPSMHRDGPPLLENAHSS", "values": [{"measurement": "bait-normalized fluorescence contrast <c (prey/bait)>, after EGF", "setting": "[4]", "value": 0.56}, {"measurement": "bait-normalized fluorescence contrast <c (prey/bait)>, basal conditions", "setting": "[4]", "value": 0.55}, {"measurement": "reduction of copatterning with 10 μM actinomycin D", "setting": "[4]", "value": 25, "unit": "%"}, {"measurement": "halftime of dissociation (FRAP)", "setting": "[5]", "value": 13, "unit": "s"}, {"measurement": "k slow (exchange rate, bi-exponential FRAP fit)", "setting": "[5]", "value": 0.074, "unit": "s⁻¹"}]}]}
